Measurements published in the supplement of paper PMC7877785.
± gives the uncertainty stated by the source.

Assay: self-splicing fitness, log relative to wild type (ln ratio); higher = more splicing; Tetrahymena group I intron in knt gene, E. coli kanamycin selection, DiMSum; sequences stand for … in CUCUCU…GGAGGGAAAAGUUAUCAGGCAUGCACCUGGUAGCUAGUCUUUAAACCAAUAGAUUGCAUCGGUUUAAAAGGCAAGACCGUCAAAUUGCGGGAAAGGGGUCAACAGCCGUUCAGUACCAAGUCUCAGGGGAAACUUUGAGAUGGCCUUGCAAAGGGUAUGGUAAUAAGCUGACGGACAUGGUCCUAACCACGCAGCCAAGUCCUAAGUCAACAGAUCUUCUGUUGAUAUGGAUGCAGUUCACAGACUAAAUGUCGGUCGGGGAAGAUGUAUUCUUCUCAUAAGAUAUAGUCGGACCUCUCCUUAAUGGGAGCUAGCGGAUGAAGUGAUGCAACACUGGAGCCGCUGGGAACUAAUUUGUAUGCGAAAGUAUAUUGAUUAGUUUUGGAGUACUCGUGGUCG
Outline: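 Pooled colonies went to amplicon sequencing on an Illumina HiSeq 2500 after six replicate transformations. The plates were LB agar with 100 μg/mL carbenicillin, 50 μM IPTG and 0.2% rhamnose, with or without 25 μg/mL kanamycin, incubated overnight at 37°C or 30°C. The E. coli BL21(DE3) library had all eight P1ex-region intron nucleotides randomised, the intron placed in the knt kanamycin-resistance gene on pET-22b(+). DiMSum fitness is the error-weighted combination of replicate fold changes, kanamycin against none, normalised to wild type.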

Sequence	self-splicing fitness (ln) (30 °C)	self-splicing fitness (ln) (37 °C)
AGAAAGCAAUAUUACGAGUA	-2.18 ± 0.097	-1.13 ± 0.086
AGAAAGCAAUAUUACGAUAG	-3.4 ± 0.38	-1.02 ± 0.16
AGAAAGCAAUAUUACGAUCU	-2.88 ± 0.11	-0.99 ± 0.11
AGAAAGCAAUAUUACGCACC	0.221 ± 0.098	0.0714 ± 0.12
AGAAAGCAAUAUUACGCGAU	-3.37 ± 0.17	-1.63 ± 0.13
AGAAAGCAAUAUUACGCGGG	-2.43 ± 0.24	-2.25 ± 0.26
AGAAAGCAAUAUUACGGACU	-0.691 ± 0.079	0.112 ± 0.089
AGAAAGCAAUAUUACGGCCC	0.946 ± 0.29	-0.169 ± 0.27
AGAAAGCAAUAUUACGGGUG	-1.41 ± 0.089	-1.36 ± 0.14
AGAAAGCAAUAUUACGGUCA	-0.253 ± 0.078	0.187 ± 0.091
AGAAAGCAAUAUUACGUAGA	-1.52 ± 0.12	-1.52 ± 0.14
AGAAAGCAAUAUUACGUCAG	-1.94 ± 0.093	-0.978 ± 0.11
AGAAAGCAAUAUUACGUCCA	-1.06 ± 0.1	-0.056 ± 0.13
AGAAAGCAAUAUUACGUCCG	-0.86 ± 0.096	0.226 ± 0.14
AGAAAGCAAUAUUACGUCGU	-1.9 ± 0.059	-0.452 ± 0.081
AGAAAGCAAUAUUACGUCUG	-0.808 ± 0.043	-0.1 ± 0.063
AGACAGCAAUAUUACGAACA	-1.33 ± 0.1	-0.502 ± 0.099
AGACAGCAAUAUUACGACAA	-1.34 ± 0.12	-1.02 ± 0.12

Sequence	self-splicing fitness (ln) (30 °C)	self-splicing fitness (ln) (37 °C)
AGACAGCAAUAUUACGACUG	-1.14 ± 0.078	-0.387 ± 0.084
AGACAGCAAUAUUACGAGGG	-4.15 ± 0.16	-2.61 ± 0.21
AGACAGCAAUAUUACGAUAG	-3.16 ± 0.2	-1.56 ± 0.26
AGACAGCAAUAUUACGCAAA	-2.66 ± 0.18	-1.37 ± 0.14
AGACAGCAAUAUUACGCCGA	-2.06 ± 0.089	-0.863 ± 0.094
AGACAGCAAUAUUACGCGCU	-2.26 ± 0.12	-1.63 ± 0.13
AGACAGCAAUAUUACGCGGG	-3.46 ± 0.2	-2.62 ± 0.18
AGACAGCAAUAUUACGCGGU	-3.61 ± 0.21	-2.4 ± 0.22
AGACAGCAAUAUUACGCGUG	-1.91 ± 0.075	-0.597 ± 0.086
AGACAGCAAUAUUACGCUAC	-2.43 ± 0.2	-2.61 ± 0.33
AGACAGCAAUAUUACGCUUC	-3.78 ± 0.28	-1.86 ± 0.27
AGACAGCAAUAUUACGGACA	-1.09 ± 0.1	-0.425 ± 0.12
AGACAGCAAUAUUACGGCAG	-3.3 ± 0.15	-1.09 ± 0.12
AGACAGCAAUAUUACGGCUC	-2.59 ± 0.15	-1.02 ± 0.13
AGACAGCAAUAUUACGGGCG	-0.665 ± 0.1	-0.459 ± 0.12
AGACAGCAAUAUUACGGUUA	-0.253 ± 0.082	-0.109 ± 0.079
AGACAGCAAUAUUACGUAUG	-3.13 ± 0.15	-0.801 ± 0.12
AGACAGCAAUAUUACGUUAU	-2.29 ± 0.1	-2.06 ± 0.12
